Experimental data taken from US20060058253.
pKd: −log10 of the molar value.

What was measured:
[1] = target: MS2 bacteriophage coat protein (Bacteriophage MS2) (UniProt P03612); conditions: likely CITED; stated Kd for cognate site
[2] = target: hnRNP A1/A2 (Homo sapiens) (UniProt P09651+P22626); conditions: apparent Kd, likely CITED; stated for A1 and A2; excess TS10 abolishes ABS stimulation in HeLa extract
Chain of hnRNP A1/A2 (Homo sapiens) (P09651 whole entry, chain 1 of 2): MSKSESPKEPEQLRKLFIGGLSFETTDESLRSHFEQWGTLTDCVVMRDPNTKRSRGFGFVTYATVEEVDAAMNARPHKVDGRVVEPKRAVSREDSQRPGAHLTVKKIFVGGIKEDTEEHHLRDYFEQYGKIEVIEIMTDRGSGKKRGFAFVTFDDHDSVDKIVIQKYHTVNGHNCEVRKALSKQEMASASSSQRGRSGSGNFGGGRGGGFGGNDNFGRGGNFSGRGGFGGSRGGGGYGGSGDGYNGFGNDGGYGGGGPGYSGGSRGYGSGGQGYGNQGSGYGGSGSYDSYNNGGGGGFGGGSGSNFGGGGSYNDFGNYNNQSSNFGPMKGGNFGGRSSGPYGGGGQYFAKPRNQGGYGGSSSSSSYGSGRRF
Chain of hnRNP A1/A2 (Homo sapiens) (P22626 whole entry, chain 2 of 2): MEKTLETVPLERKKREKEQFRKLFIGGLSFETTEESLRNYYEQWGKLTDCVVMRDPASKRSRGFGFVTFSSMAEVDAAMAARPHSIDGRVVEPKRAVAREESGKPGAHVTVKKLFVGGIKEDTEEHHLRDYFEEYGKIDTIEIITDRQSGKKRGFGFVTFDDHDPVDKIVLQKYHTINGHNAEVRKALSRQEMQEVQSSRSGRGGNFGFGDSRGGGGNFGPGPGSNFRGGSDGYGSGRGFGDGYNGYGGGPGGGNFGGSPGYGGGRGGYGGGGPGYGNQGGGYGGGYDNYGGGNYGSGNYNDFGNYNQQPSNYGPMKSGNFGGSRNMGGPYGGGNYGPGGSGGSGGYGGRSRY

Chain of MS2 bacteriophage coat protein (Bacteriophage MS2) (P03612 2-130): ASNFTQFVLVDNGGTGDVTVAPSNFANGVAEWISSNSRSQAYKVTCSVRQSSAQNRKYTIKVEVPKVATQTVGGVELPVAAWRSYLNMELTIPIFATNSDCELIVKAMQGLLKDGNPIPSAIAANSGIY

Substance | pKd [1] | pKd [2]
MS2 stem-loop binding site in C5 pre-mRNA (position -26) | 9.00 | –
TS10 telomeric DNA oligo (60 nt, nine A1 binding sites) | – | > 8.30
